Series [1] has as its system T1, GST fusion protein carrying the SP3 motif of NFAT.
T1 sequence: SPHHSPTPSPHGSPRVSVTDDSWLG

The target in series [2] is T2, GST fusion protein containing the N-terminal regulatory domain (amino acids 1-319) of NFAT2 (UniProt O95644).
T2 sequence: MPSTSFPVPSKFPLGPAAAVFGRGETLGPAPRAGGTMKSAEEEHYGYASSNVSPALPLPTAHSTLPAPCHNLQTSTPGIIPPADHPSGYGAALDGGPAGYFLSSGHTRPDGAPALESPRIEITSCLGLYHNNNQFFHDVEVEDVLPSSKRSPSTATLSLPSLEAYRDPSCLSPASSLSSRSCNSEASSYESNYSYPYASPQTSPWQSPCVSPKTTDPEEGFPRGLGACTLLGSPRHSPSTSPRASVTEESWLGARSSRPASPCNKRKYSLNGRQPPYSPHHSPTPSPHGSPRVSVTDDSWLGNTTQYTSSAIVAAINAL

For series [3], the system named is T3, GST fusion protein carrying the SP2 motif of NFAT.
T3 sequence: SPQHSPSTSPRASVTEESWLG

For series [4], the target named is T4, GST fusion protein containing the NFAT2 phosphorylation site S324 flanked with 9-11 amino acids (UniProt O95644).
T4 sequence: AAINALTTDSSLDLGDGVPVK

Series [5] deals with T5, GST fusion protein containing the NFAT2 phosphorylation site S161 flanked with 9-11 amino acids (UniProt O95644).
T5 sequence: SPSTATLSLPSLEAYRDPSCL

For series [6], the target named is T6, GST fusion protein containing the NFAT2 phosphorylation site S151 flanked with 9-11 amino acids (UniProt O95644).
T6 sequence: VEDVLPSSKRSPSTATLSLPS

In the case of IKKε purified from 293T cells, the “in vitro kinase assay” value in series [1] was “IKKε efficiently phosphorylated the SP3 motif”; in series [2], “purified IKKε was sufficient to phosphorylate the N-terminal regulatory domain (amino acids 1-319) of NFAT2 by an in vitro kinase assay”; in series [3] it was “weakly the SP2 site”; in series [4], “peptides containing three serines, except the peptides containing S^117, were phosphorylated by IKKε in vitro”; in series [5], “peptides containing three serines, except the peptides containing S^117, were phosphorylated by IKKε in vitro”; in series [6], “peptides containing three serines, except the peptides containing S^117, were phosphorylated by IKKε in vitro”.
